Experimental data published in IntAct's records for PubMed 28062662.

B1: Glutaryl-CoA dehydrogenase, mitochondrial (Homo sapiens), Q92947 (parent)
chain: MALRGVSVRLLSRGPGLHVLRTWVSSAAQTEKGGRTQSQLAKSSRPEFDWQDPLVLEEQLTTDEILIRDTFRTYCQERLMPRILLANRNEVFHREIISEMGELGVLGPTIKGYGCAGVSSVAYGLLARELERVDSGYRSAMSVQSSLVMHPIYAYGSEEQRQKYLPQLAKGELLGCFGLTEPNSGSDPSSMETRAHYNSSNKSYTLNGTKTWITNSPMADLFVVWARCEDGCIRGFLLEKGMRGLSAPRIQGKFSLRASATGMIIMDGVEVPEENVLPGASSLGGPFGCLNNARYGIAWGVLGASEFCLHTARQYALDRMQFGVPLARNQLIQKKLADMLTEITLGLHACLQLGRLKDQDKAAPEMVSLLKRNNCGKALDIARQARDMLGGNGISDEYHVIRHAMNLEAVNTYEGTHDIHALILGRAITGIQAFTASK
partner: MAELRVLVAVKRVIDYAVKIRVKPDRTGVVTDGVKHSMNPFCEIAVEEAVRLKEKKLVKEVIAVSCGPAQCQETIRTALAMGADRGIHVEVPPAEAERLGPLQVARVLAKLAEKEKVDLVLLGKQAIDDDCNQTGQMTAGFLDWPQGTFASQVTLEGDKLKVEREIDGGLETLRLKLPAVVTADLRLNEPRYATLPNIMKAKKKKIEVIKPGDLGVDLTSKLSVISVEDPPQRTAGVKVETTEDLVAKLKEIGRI
B2: Glutaryl-CoA dehydrogenase, mitochondrial (Homo sapiens), Q92947 (parent)
chain: B1 chain
partner: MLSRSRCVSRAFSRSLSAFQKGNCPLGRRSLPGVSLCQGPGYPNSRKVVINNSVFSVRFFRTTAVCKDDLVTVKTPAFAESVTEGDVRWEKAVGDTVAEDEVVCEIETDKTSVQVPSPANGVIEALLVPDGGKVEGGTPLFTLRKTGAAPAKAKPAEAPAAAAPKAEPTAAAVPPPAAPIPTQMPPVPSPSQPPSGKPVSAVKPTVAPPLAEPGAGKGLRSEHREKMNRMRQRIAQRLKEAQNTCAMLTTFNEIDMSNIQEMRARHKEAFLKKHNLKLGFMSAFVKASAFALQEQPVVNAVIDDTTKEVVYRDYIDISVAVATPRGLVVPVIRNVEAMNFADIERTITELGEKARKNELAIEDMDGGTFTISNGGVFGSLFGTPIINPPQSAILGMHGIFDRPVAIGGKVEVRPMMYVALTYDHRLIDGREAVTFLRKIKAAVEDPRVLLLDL

Variants of: B1
Conditions: with etfb_human ETFB

Variant | effect of a mutation on the interaction
MALRGVSVRLLSRGPGLHVLRTWVSSAAQTEKGGRTQSQLAKSSRPEFDWQDPLVLEEQLTTDEILIRDTFRTYCQERLMPRILLANRNEVFHREIISEMGELGVLGPTIKGYGCAGVSSVAYGLLARELERVDSGYRSAMSVQSSLVMHPIYAYGSEEQRQKYLPQLAKGELLGCFGLTEPNSGSDPSSMETRAHYNSSNKSYTLNGTKTWITNSPMADLFVVWARCEDGCIRGFLLEKGMRGLSAPRIQGKFSLRASATGMIIMDGVEVPEENVLSGASSLGGPFGCLNNARYGIAWGVLGASEFCLHTARQYALDRMQFGVPLARNQLIQKKLADMLTEITLGLHACLQLGRLKDQDKAAPEMVSLLKRNNCGKALDIARQARDMLGGNGISDEYHVIRHAMNLEAVNTYEGTHDIHALILGRAITGIQAFTASK [P278S] | increasing interaction strength
MALRGVSVRLLSRGPGLHVLRTWVSSAAQTEKGGRTQSQLAKSSRPEFDWQDPLVLEEQLTTDEILIRDTFRTYCQERLMPRILLANRNEVFHREIISEMGELGVLGPTIKGYGCAGVSSVAYGLLARELERVDSGYRSAMSVQSSLVMHPIYAYGSEEQRQKYLPQLAKGELLGCFGLTEPNSGSDPSSMETRAHYNSSNKSYTLNGTKTWITNSPMADLFVVWARCEDGCIRGFLLEKGMRGLSAPRIQGKFSLRASATGMIIMDGVEVPEENVLPGASSLGGPFGCLNNARYGIAWGVLGASEFCLHTARQYALDRMQFGVPLARNQLIQKKLADMLTEITLGLHACLQLGHLKDQDKAAPEMVSLLKRNNCGKALDIARQARDMLGGNGISDEYHVIRHAMNLEAVNTYEGTHDIHALILGRAITGIQAFTASK [R355H] | increasing interaction strength
MALRGVSVRLLSRGPGLHVLRTWVSSAAQTEKGGRTQSQLAKSSRPEFDWQDPLVLEEQLTTDEILIRDTFRTYCQERLMPRILLANRNEVFHREIISEMGELGVLGPTIKGYGCAGVSSVAYGLLARELERVDSGYRSAMSVQSSLVMHPIYAYGSEEQRQKYLPQLAKGELLGCFGLTEPNSGSDPSSMETRAHYNSSNKSYTLNGTKTWITNSPMADLFVVWARCEDGCIRGFLLEKGMRGLSALRIQGKFSLRASATGMIIMDGVEVPEENVLPGASSLGGPFGCLNNARYGIAWGVLGASEFCLHTARQYALDRMQFGVPLARNQLIQKKLADMLTEITLGLHACLQLGRLKDQDKAAPEMVSLLKRNNCGKALDIARQARDMLGGNGISDEYHVIRHAMNLEAVNTYEGTHDIHALILGRAITGIQAFTASK [P248L] | increasing interaction strength

Other lines, results leading:

effect of a mutation on the interaction | Variant
increasing interaction strength | MALRGVSVRLLSRGPGLHVLRTWVSSAAQTEKGGRTQSQLAKSSRPEFDWQDPLVLEEQLTTDEILIRDTFRTYCQERLMPRILLANRNEVFHREIISEMGELGVLGPTIKGYGCAGVSSVAYGLLARELERVDSGYRSAMSVQSSLVMHPIYAYGSEEQRQKYLPQLAKGELLGCFGLTEPNSGSDPSSMETRAHYNSSNKSYTLNGTKTWITNSPMADLFVVWARCEDGCIRGFLLEKGMRCLSAPRIQGKFSLRASATGMIIMDGVEVPEENVLPGASSLGGPFGCLNNARYGIAWGVLGASEFCLHTARQYALDRMQFGVPLARNQLIQKKLADMLTEITLGLHACLQLGRLKDQDKAAPEMVSLLKRNNCGKALDIARQARDMLGGNGISDEYHVIRHAMNLEAVNTYEGTHDIHALILGRAITGIQAFTASK [G244C]
increasing interaction strength | MALRGVSVRLLSRGPGLHVLRTWVSSAAQTEKGGRTQSQLAKSSRPEFDWQDPLVLEEQLTTDEILIRDTFRTYCQERLMPRILLANRNEVFHREIISEMGELGVLGPTIKGYGCAGVSSVAYGLLARELERVDSGYRSAMSVQSSLVMHPIYAYGSEEQRQKYLPQLAKGELLGCFGLTEPNSGSDPSSMETRAHYNSSNKSYTLNGTKTWITNSPMADLFVVWARCEDGCIRGFLLEKGMRGLSAPRIQGKFSLRASATGVIIMDGVEVPEENVLPGASSLGGPFGCLNNARYGIAWGVLGASEFCLHTARQYALDRMQFGVPLARNQLIQKKLADMLTEITLGLHACLQLGRLKDQDKAAPEMVSLLKRNNCGKALDIARQARDMLGGNGISDEYHVIRHAMNLEAVNTYEGTHDIHALILGRAITGIQAFTASK [M263V]

Variants of: B2
Conditions: with odo2_human DLST

Variant | effect of a mutation on the interaction
MALRGVSVRLLSRGPGLHVLRTWVSSAAQTEKGGRTQSQLAKSSRPEFDWQDPLVLEEQLTTDEILIRDTFRTYCQERLMPRILLANRNEVFHREIISEMGELGVLGPTIKGYGCAGVSSVAYGLLARELERVDSGYRSAMSVQSSLVMHPIYAYGSEEQQQKYLPQLAKGELLGCFGLTEPNSGSDPSSMETRAHYNSSNKSYTLNGTKTWITNSPMADLFVVWARCEDGCIRGFLLEKGMRGLSAPRIQGKFSLRASATGMIIMDGVEVPEENVLPGASSLGGPFGCLNNARYGIAWGVLGASEFCLHTARQYALDRMQFGVPLARNQLIQKKLADMLTEITLGLHACLQLGRLKDQDKAAPEMVSLLKRNNCGKALDIARQARDMLGGNGISDEYHVIRHAMNLEAVNTYEGTHDIHALILGRAITGIQAFTASK [R161Q] | increasing interaction strength
MALRGVSVRLLSRGPGLHVLRTWVSSAAQTEKGGRTQSQLAKSSRPEFDWQDPLVLEEQLTTDEILIRDTFRTYCQERLMPRILLANRNEVFHREIISEMGELGVLGPTIKGHGCAGVSSVAYGLLARELERVDSGYRSAMSVQSSLVMHPIYAYGSEEQRQKYLPQLAKGELLGCFGLTEPNSGSDPSSMETRAHYNSSNKSYTLNGTKTWITNSPMADLFVVWARCEDGCIRGFLLEKGMRGLSAPRIQGKFSLRASATGMIIMDGVEVPEENVLPGASSLGGPFGCLNNARYGIAWGVLGASEFCLHTARQYALDRMQFGVPLARNQLIQKKLADMLTEITLGLHACLQLGRLKDQDKAAPEMVSLLKRNNCGKALDIARQARDMLGGNGISDEYHVIRHAMNLEAVNTYEGTHDIHALILGRAITGIQAFTASK [Y113H] | decreasing interaction strength
MALRGVSVRLLSRGPGLHVLRTWVSSAAQTEKGGRTQSQLAKSSRPEFDWQDPLVLEEQLTTDEILIRDTFRTYCQERLMPRILLANCNEVFHREIISEMGELGVLGPTIKGYGCAGVSSVAYGLLARELERVDSGYRSAMSVQSSLVMHPIYAYGSEEQRQKYLPQLAKGELLGCFGLTEPNSGSDPSSMETRAHYNSSNKSYTLNGTKTWITNSPMADLFVVWARCEDGCIRGFLLEKGMRGLSAPRIQGKFSLRASATGMIIMDGVEVPEENVLPGASSLGGPFGCLNNARYGIAWGVLGASEFCLHTARQYALDRMQFGVPLARNQLIQKKLADMLTEITLGLHACLQLGRLKDQDKAAPEMVSLLKRNNCGKALDIARQARDMLGGNGISDEYHVIRHAMNLEAVNTYEGTHDIHALILGRAITGIQAFTASK [R88C] | increasing interaction strength

Second part, the variant after the results:

effect of a mutation on the interaction | Variant
decreasing interaction strength | MALRGVSVRLLSRGPGLHVLRTWVSSAAQTEKGGRTQSQLAKSSRPEFDWQDPLVLEEQLTTDEILIRDTFRTYCQERLMPRILLANRNEVFHREIISEMRELGVLGPTIKGYGCAGVSSVAYGLLARELERVDSGYRSAMSVQSSLVMHPIYAYGSEEQRQKYLPQLAKGELLGCFGLTEPNSGSDPSSMETRAHYNSSNKSYTLNGTKTWITNSPMADLFVVWARCEDGCIRGFLLEKGMRGLSAPRIQGKFSLRASATGMIIMDGVEVPEENVLPGASSLGGPFGCLNNARYGIAWGVLGASEFCLHTARQYALDRMQFGVPLARNQLIQKKLADMLTEITLGLHACLQLGRLKDQDKAAPEMVSLLKRNNCGKALDIARQARDMLGGNGISDEYHVIRHAMNLEAVNTYEGTHDIHALILGRAITGIQAFTASK [G101R]
increasing interaction strength | MALRGVSVRLLSRGPGLHVLRTWVSSAAQTEKGGRTQSQLAKSSRPEFDWQDPLVLEEQLTTDEILIRDTFRTYCQERLMPRILLANRNEVFHREIISEMGELGVLGPTIKGYGYAGVSSVAYGLLARELERVDSGYRSAMSVQSSLVMHPIYAYGSEEQRQKYLPQLAKGELLGCFGLTEPNSGSDPSSMETRAHYNSSNKSYTLNGTKTWITNSPMADLFVVWARCEDGCIRGFLLEKGMRGLSAPRIQGKFSLRASATGMIIMDGVEVPEENVLPGASSLGGPFGCLNNARYGIAWGVLGASEFCLHTARQYALDRMQFGVPLARNQLIQKKLADMLTEITLGLHACLQLGRLKDQDKAAPEMVSLLKRNNCGKALDIARQARDMLGGNGISDEYHVIRHAMNLEAVNTYEGTHDIHALILGRAITGIQAFTASK [C115Y]
increasing interaction strength | MALRGVSVRLLSRGPGLHVLRTWVSSAAQTEKGGRTQSQLAKSSRPEFDWQDPLVLEEQLTTDEILIRDTFRTYCQERLMPRILLANRNEVFHREIISEMGELGVLGPTIKGYGCARVSSVAYGLLARELERVDSGYRSAMSVQSSLVMHPIYAYGSEEQRQKYLPQLAKGELLGCFGLTEPNSGSDPSSMETRAHYNSSNKSYTLNGTKTWITNSPMADLFVVWARCEDGCIRGFLLEKGMRGLSAPRIQGKFSLRASATGMIIMDGVEVPEENVLPGASSLGGPFGCLNNARYGIAWGVLGASEFCLHTARQYALDRMQFGVPLARNQLIQKKLADMLTEITLGLHACLQLGRLKDQDKAAPEMVSLLKRNNCGKALDIARQARDMLGGNGISDEYHVIRHAMNLEAVNTYEGTHDIHALILGRAITGIQAFTASK [G117R]
decreasing interaction strength | MALRGVSVRLLSRGPGLHVLRTWVSSAAQTEKGGRTQSQLAKSSRPEFDWQDPLVLEEQLTTDEILIRDTFRTYCQERLMPRILLANRNEVFHREIISEMGELGVLGPTIKGYGCAGVSSVAYGLLARELERVDSGYRSAMSVQSSLVMHPIYAYGSEEQRQKYLPQLAKGELLGCFGLTEPNSGSDPSSMETRAHYNSSNKSYTLNGTKTWITNSPMADLFVVWARCEDGCIRGFLLEKGMRGLSAPRIQGKFSLRASATGMIIMDGVEVPEENVLPGASSLGGPFGCLNNARYGIAWGVLGASEFCLHTARQYALDRMQFGVPLARNQLIQKKLADMLTEITLGLHACLQLGHLKDQDKAAPEMVSLLKRNNCGKALDIARQARDMLGGNGISDEYHVIRHAMNLEAVNTYEGTHDIHALILGRAITGIQAFTASK [R355H]
decreasing interaction strength | MALRGVSVRLLSRGPGLHVLRTWVSSAAQTEKGGRTQSQLAKSSRPEFDWQDPLVLEEQLTTDEILIRDTFRTYCQERLMPRILLANRNEVFHREIISEMGELGVLGPTIKGYGCAGVSSVAYGLLARELERVDSGYRSAMSVQSSLVMHPIYAYGSEEQRQKYLPQLAKGELLGCFGLTEPNSGSDPSSMETRAHYNSSNKSYTLNGTKTWITNSLMADLFVVWARCEDGCIRGFLLEKGMRGLSAPRIQGKFSLRASATGMIIMDGVEVPEENVLPGASSLGGPFGCLNNARYGIAWGVLGASEFCLHTARQYALDRMQFGVPLARNQLIQKKLADMLTEITLGLHACLQLGRLKDQDKAAPEMVSLLKRNNCGKALDIARQARDMLGGNGISDEYHVIRHAMNLEAVNTYEGTHDIHALILGRAITGIQAFTASK [P217L]
